# Measurements from IntAct's records for PubMed 18547396.
# B1: Protein TIFY 7 (Arabidopsis thaliana (Mouse-ear cress)), Q8W4J8 (parent)
# chain: MERDFLGLSDKQYLSNNVKHEVNDDAVEERGLSTKAAREWGKSKVFATSSFMPSSDFQEAKAFPGAYQWGSVSAANVFRRCQFGGAFQNATPLLLGGSVPLPTHPSLVPRVASSGSSPQLTIFYGGTISVFNDISPDKAQAIMLCAGNGLKGETGDSKPVREAERMYGKQIHNTAATSSSSATHTDNFSRCRDTPVAATNAMSMIESFNAAPRNMIPSVPQARKASLARFLEKRKERLMSAMPYKKMLLDLSTGESSGMNYSSTSPT
# partner: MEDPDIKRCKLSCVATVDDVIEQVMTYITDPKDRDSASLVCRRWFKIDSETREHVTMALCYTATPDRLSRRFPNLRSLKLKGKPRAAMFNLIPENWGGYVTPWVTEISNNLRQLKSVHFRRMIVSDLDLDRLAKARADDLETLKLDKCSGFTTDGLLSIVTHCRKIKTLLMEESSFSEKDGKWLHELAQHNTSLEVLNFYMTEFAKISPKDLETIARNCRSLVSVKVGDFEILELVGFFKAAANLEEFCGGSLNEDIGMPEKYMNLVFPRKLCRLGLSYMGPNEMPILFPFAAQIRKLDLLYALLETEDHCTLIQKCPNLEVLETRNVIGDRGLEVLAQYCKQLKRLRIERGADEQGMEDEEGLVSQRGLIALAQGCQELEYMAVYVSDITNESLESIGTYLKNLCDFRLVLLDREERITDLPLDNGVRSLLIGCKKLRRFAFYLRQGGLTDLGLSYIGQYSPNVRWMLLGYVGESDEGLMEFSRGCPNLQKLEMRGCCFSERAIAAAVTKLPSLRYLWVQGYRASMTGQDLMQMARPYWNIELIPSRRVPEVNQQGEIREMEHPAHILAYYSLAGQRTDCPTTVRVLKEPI
# B2: Protein TIFY 10A (Arabidopsis thaliana (Mouse-ear cress)), Q9LMA8 (parent)
# chain: MSSSMECSEFVGSRRFTGKKPSFSQTCSRLSQYLKENGSFGDLSLGMACKPDVNGTLGNSRQPTTTMSLFPCEASNMDSMVQDVKPTNLFPRQPSFSSSSSSLPKEDVLKMTQTTRSVKPESQTAPLTIFYAGQVIVFNDFSAEKAKEVINLASKGTANSLAKNQTDIRSNIATIANQVPHPRKTTTQEPIQSSPTPLTELPIARRASLHRFLEKRKDRVTSKAPYQLCDPAKASSNPQTTGNMSWLGLAAEI
# partner: B1 partner
# Variants of: B1
# Conditions: with coi1_arath COI1, O04197
row,Variant,effect of a mutation on the interaction
1,MERDFLGLSDKQYLSNNVKHEVNDDAVEERGLSTKAAREWGKSKVFATSSFMPSSDFQEAKAFPGAYQWGSVSAANVFRRCQFGGAFQNATPLLLGGSVPLPTHPSLVPRVASSGSSPQLTIFYGGTISVFNDISPDKAQAIMLCAGNGLKGETGDSKPVREAERMYGKQIHNTAATSSSSATHTDNFSRCRDTPVAATNAMSMIESFNAAPRNMIPSVPQAAKASLARFLEKRKERLMSAMPYKKMLLDLSTGESSGMNYSSTSPT [R223A],disrupting interaction
2,MERDFLGLSDKQYLSNNVKHEVNDDAVEERGLSTKAAREWGKSKVFATSSFMPSSDFQEAKAFPGAYQWGSVSAANVFRRCQFGGAFQNATPLLLGGSVPLPTHPSLVPRVASSGSSPQLTIFYGGTISVFNDISPDKAQAIMLCAGNGLKGETGDSKPVREAERMYGKQIHNTAATSSSSATHTDNFSRCRDTPVAATNAMSMIESFNAAPRNMIPSVPQARAASLARFLEKRKERLMSAMPYKKMLLDLSTGESSGMNYSSTSPT [K224A],disrupting interaction
3,MERDFLGLSDKQYLSNNVKHEVNDDAVEERGLSTKAAREWGKSKVFATSSFMPSSDFQEAKAFPGAYQWGSVSAANVFRRCQFGGAFQNATPLLLGGSVPLPTHPSLVPRVASSGSSPQLTIFYGGTISVFNDISPDKAQAIMLCAGNGLKGETGDSKPVREAERMYGKQIHNTAATSSSSATHTDNFSRCRDTPVAATNAMSMIESFNAAPRNMIPSVPQAAAASLARFLEKRKERLMSAMPYKKMLLDLSTGESSGMNYSSTSPT [R223A;K224A],disrupting interaction

# Variants of: B2
# Conditions: with coi1_arath COI1, O04197
row,Variant,effect of a mutation on the interaction
1,MSSSMECSEFVGSRRFTGKKPSFSQTCSRLSQYLKENGSFGDLSLGMACKPDVNGTLGNSRQPTTTMSLFPCEASNMDSMVQDVKPTNLFPRQPSFSSSSSSLPKEDVLKMTQTTRSVKPESQTAPLTIFYAGQVIVFNDFSAEKAKEVINLASKGTANSLAKNQTDIRSNIATIANQVPHPRKTTTQEPIQSSPTPLTELPIAARASLHRFLEKRKDRVTSKAPYQLCDPAKASSNPQTTGNMSWLGLAAEI [R205A],disrupting interaction
2,MSSSMECSEFVGSRRFTGKKPSFSQTCSRLSQYLKENGSFGDLSLGMACKPDVNGTLGNSRQPTTTMSLFPCEASNMDSMVQDVKPTNLFPRQPSFSSSSSSLPKEDVLKMTQTTRSVKPESQTAPLTIFYAGQVIVFNDFSAEKAKEVINLASKGTANSLAKNQTDIRSNIATIANQVPHPRKTTTQEPIQSSPTPLTELPIAAAASLHRFLEKRKDRVTSKAPYQLCDPAKASSNPQTTGNMSWLGLAAEI [R205A;R206A],disrupting interaction
3,MSSSMECSEFVGSRRFTGKKPSFSQTCSRLSQYLKENGSFGDLSLGMACKPDVNGTLGNSRQPTTTMSLFPCEASNMDSMVQDVKPTNLFPRQPSFSSSSSSLPKEDVLKMTQTTRSVKPESQTAPLTIFYAGQVIVFNDFSAEKAKEVINLASKGTANSLAKNQTDIRSNIATIANQVPHPRKTTTQEPIQSSPTPLTELPIARAASLHRFLEKRKDRVTSKAPYQLCDPAKASSNPQTTGNMSWLGLAAEI [R206A],disrupting interaction
